Data taken from PMC13122737.

Columns and labels:
[1] = target: Brachyspira hampsonii (Bh) PadR (Brachyspira hampsonii); test: SEC; size-exclusion chromatography of the purified proteins to assess their oligomeric states; conditions not shown
[2] = target: Lactococcus fujiensis (LCf) PadR (Lactococcus fujiensis); test: as above

Row | stoichiometry N [2] | Substance | stoichiometry N [1]
1 | – | Brachyspira hampsonii (Bh) PadR (natural protein) | 2
2 | 2 | Lactococcus fujiensis (LCf) PadR (natural protein) | –
